Test results reported in the DeepSol protein solubility set.

Assay: soluble on expression in E. coli; label from the status in PepcDB or PDB records

## MRGLDYRWIEALDSVVSKGSFERAAEQLFISQSAVSQRIKQLEKYLAQPVLIREQPPRPTLVGKKLLGLYRRVCLIEQELVPELTNQEHVRPVSMSIATNADSLATWLLPALDKVMKSRQVELNLVIYGESRTLDKLKNGEVVGAISLEPQPITGCSAEYLGQMEYLCVASPEFYQKYFAKGVTPRSLIKAPAVSYDQYDELHNKFLWDYFAVPRDKVINHTVGSSEAFVRLALSGAAYCLIPRLQIISELESGALINMTPDFMLSYPIFWHHWQLETGVLLEISEAITAYAKSVLPQ
  soluble on expression in E. coli: not soluble

## MNDGDVSRQIQQMVRFIRQEAEEKANEISVSAEEEFNIEKLQLVEAEKKKIRQDYEKKEKQADVRKKIDYSMQLNASRIKVLQAQDDIVNAMKDQAAKDLLNVSRDEYAYKQLLKDLIVQCLLRLKEPSVLLRCREEDLGLVEAVLDDAKEEYAGKAKVHAPEVAVDTKIFLPPPPKSNDPHGLHCSGGVVLASRDGKIVCENTLDARLDVAFRMKLPVIRKSLFGQVTA
  soluble on expression in E. coli: soluble

## MGSDKIHHHHHHMDFKQVQQSFIDYIRDPSRPLPADTDVRRMQVYRELFFNNVLGFVSNGFPVLKSLYSEEEWLALVQSFFSQHDCQSPIFIDIAGEFLDFLQQQYQPTANDPVFMLELAHYEWLELAVAVAQASGDESQLSPAQIPMQALCLSKTARVAQYHFEVQHIRQDYRPQQQLDTPVFFCLYQDADCEVCFLQLNPLSAQVLAFLQAQGQASFKEIVDWLTITYPQMAPEIIAQGCTQLLEQLAAKGIVRGRQS
  soluble on expression in E. coli: not soluble

## GSKAEKTLGDFAAEYAKSNRSTCKGCMEKIEKGQVRLSKKMVDPEKPQLGMIDRWYHPGCFVKNREELGFRPEYSASQLKGFSLLATEDKEALKKQLPGVKSEGKRKGDEVDGVDEVAKKK
  soluble on expression in E. coli: soluble

## MDPGQRPNPFGAPGAIPKKPCLSQGSPGTSGSGAPCDEPSRSESPGEGPSGTGGSAAAGDITRQAVVAAITEWSRTRQLRISTGASEGKASIKDWIVCQVNSGKFPGVEWEDEERTRFRIPVTPLADPCFEWRRDGELGVVYIRERGNMPVDASFKGTRGRRRMLAALRRTRGLQEIGKGISQDGHHFLVFRVRKPEEEQCVECGVVAGAVHDFNNMARLLQEGFFSPGQCLPGEIVTPVPSCTTAEGQEAVIDWGRLFIRMYYNGEQVHELLTTSQSGCRISSALRRDPAVHYCAVGSPGQVWLPNVPNLACEIAKRELCDTLDACAKGILLTSSCNGIFCVCYHNGPVHFIGNTVPPDSGPLLLPQGKPTRIFNPNTFLVGLANSPLPAPSHVTCPLVKLWLGKPVAVGKLEPHAPSPRDFAARCSNFSDACVVLEIMPKPLWDAMQ
  soluble on expression in E. coli: soluble

## IIGGHEAKPHSRPYMAYLQIMDEYSGSKKCGGFLIREDFVLTAAHCSGSKIQVTLGAHNIKEQEKMQQIIPVVKIIPHPAYNSKTISNDIMLLKLKSKAKRSSAVKPLNLPRRNVKVKPGDVCYVAGWGKLGPMGKYSDTLQEVELTVQEDQKCESYLKNYFDKANEICAGDPKIKRASFRGDSGGPLVCKKVAAGIVSYGQNDGSTPRAFTKVSTFLSWIKKTMKKS
  soluble on expression in E. coli: soluble

## MKKFLALLLSVIIVFSLTACGGKNSGNNSNNSSNNNSSNNTGGKKIKIGMVTDVGGVNDGSFNQSAWEGLQRAQKELGVEVRYAESATDADYAPNIEAFIDEGYDLIICVGYMLADATRKAAEANPNQKFAIIDDASIDLPNVTCLMFEQSQASYLVGLVAGKMTKTNKVGFVVGMVSQTMNEFGYGYLAGVKDANPNATILQFNANSFSSTETGKSAATTMITNGADVIFHAAGGTGLGVIEGCKDAGKWAIGVDSDQSPLAPENILTSAMKRVDNACFDIAKAVKEGNVKPGIITYDLKSAGVDIAPTTTNLPKEVLDYVNQAKQDIINGKITVPKTKAEFEAKYGNIYELDD
  soluble on expression in E. coli: soluble

## MGSDKIHHHHHHMRDFSSDHSALALNTASLGHNLEGHGAGWTSEQVIDACAERGFGSIVFWRREIGERAVKIGERVRSAGLTVAGLCRTPFLVGTQATDVESVMDDFKRSIDMAAALGAPVLTIVVGGVHPGTKGVAESLKIVADRVAEAAPCAQASGVKLALEPLNPVYAGNRSCLTTLRDAVDLCDRIAAPNVGIAVDVYHVWWDTELERQLKRAGAERIYGYHLCDWLAETNDVLLDRGMMGDGVADLKAIRSFVEGAGYRGPCEVEIFSANDWWKRDPGEVLDVMVERFRNCC
  soluble on expression in E. coli: not soluble

## MGSDKIHHHHHHMSKLFDCITDELQDFIAAQHLFFVGSAPLSPTGHVNLSPKGLGCFRVLSPKQVGYVDLTGSGNETSAHLQENGRITFMFCAFEEPACILRLYGQGNTILPSSPDWDSLYSLFLPMPGTRQIIVADIEKVQTSCGFGVPLYEYQGQRQTLVNWASKKGEEGVREYQQKKNLVSIDGLPTPLSKLS
  soluble on expression in E. coli: not soluble

## SLVKGESGHQAVSGIAIQRDLAIIEVDKEHLSSATKQCQMLGIDIWNVIEETERTGIMIKQEACAKFDLVFSDKIRNSEAVSLLTAVGLEANGMVEHACGLLAQQDIAINFCATNALTMMLVLPPESVDTAANILHDAYITSSEALNIQQKHAFLG
  soluble on expression in E. coli: not soluble

## MGRKKGLPEFEESAPDGFDPENPYKDPVAMVEMREHIVREKWIQIEKAKILREKVKWCYRVEGVNHYQKCRHLVQQYLDSTRGVGWGKDHRPISLHGPKPEAVEAE
  soluble on expression in E. coli: not soluble

## MKQGLQLRLSQQLAMTPQLQQAIRLLQLSTLELQQELQQALENNPLLEQTDLHDEIDTQQPQDNDPLDTADALEQKEMPEELPLDASWDEIYTAGTPSGPSGDYIDDELPVYQGETTQSLQDYLMWQVELTPFSDTDRAIATSIVDAVDDTGYLTVSLDEIRESMGDVEVDLDEVEAVLKRIQRFDPVGVAAKDLRDCLLIQLSQFDKSTPWLEEARLIICDHLDLLANHDFRTLMRVTRLKEEVLKEAVNLIQSLDPRPGQSIQTGEPEYVIPDVLVRKHNGRWTVELNSDSIPRLQINQHYAAMCNSARNDADSQFIRSNLQDAKWLIKSLESRNDTLLRVSRCIVEQQQAFFEQGEEYMKPMVLADIAQAVEMHESTISRVTTQKYLHSPRGIFELKYFFSSHVNTEGGGEASSTAIRALVKKLIAAENPAKPLSDSKLTSLLSEQGIMVARRTVAKYRESLSIPPSNQRKQLV
  soluble on expression in E. coli: not soluble

## MAHHHHHHMKGCTLQNNFNHTAPFCGEWNSTILSGSLPPNSGGSSCVINLIKDEVHTVNGNTPRGITITSDTTKDGVFCTMDANGCPFAVDREIERGVNRMKAITKHGTCHMAYATSGGRTCDDSYDRSTRNYHDEEDEEWYEEDEEEGEDSPRIHIIDEHRDGRLLGNILCGMSRAGERISQGLDMLSPLEKRKSGRCAAIESVDYNNTRRRGGGGAETQKGLFQNYYNTGRGRWASRNHCRTNGWDESVSVESCFSHTYNQQWRGREPDYAMMEAHAALDGRSFCEGTYLSSTKLSERKKRVALSGSRVCRDAGKVIVQDNCPYDHKKRHKGRRQCQSPFGEEKIRANDPFDSPKNAITHIKKAGSAGSDDNDSCNPHSKSPGLTGSGSRCSQKETAGRSAEQRNGSGKAASPKTSPHKDELKEKESTVVKKD
  soluble on expression in E. coli: not soluble

## MNFENLLIELGTEELPPKALRKLAESFLANFTEELTKADLAFKSAVWYAAPRRLALNITELAIAQADKIVEKRGPAVSSAFDAGGKPTKAAEGWARGNGITVDQAERLVTDKGEWLVYNAKVEGVETKSLVAAMAQRALDKLPIPKPMRWGSSKTQFIRPVHTATMLLGSELIEGELLGIKSARNIRGHRFMGTGFELDHADNYLTLLKEKGKVIADYESRKALIKADAEKAAAKIGGTADIEDALLEEVTSLVEWPVVLTASFEEKFLSVPSEALVYTMKGDQKYFPVFDDAGKLLPNFIFVANIESKDPAQIISGNEKVVRPRLADAEFFFNTDKKHTLESRLPSLETVLFQQQLGTLKDKVTRISALAAFIAEQTGANAVDAARAGLLSKTDLMTNMVMEFTDTQGTMGMHYARLDGETEAVALAMEEQYKPKFSGDTVPTAAVSCAVALADKLDTLVGIFGIGQAPKGAADPFALRRAAIGVLRIIVENKLPLDLVTLIAKAQELHGANLSNANASEEVLEFLMARFRAWYQDKGINVDVILAVLARRPTR
  soluble on expression in E. coli: not soluble

## MLTFLIPTAKEMTIPKESHPHLLPQDSQAILKIMAAMTTEDLAKSYRIKEESAKKEQQRWQDMASQQSLAYPAYQLFNGLMYRHIKRDKLTTQEQAYLTQQVYITSSFYGIIPANHPIAEHRHDFHTRIKIEGQSLKSYWRPCYNQFAKEHPQVISLLSSEFDDVFSKDCKQLWISPKFMAEKEGQFKTHSTISKKARGAFLTACMENNCQTVDSLKSLVFAGFYYHPDLSTDHEFVYIKKEA
  soluble on expression in E. coli: not soluble

## LKELHILTRDGKINQDTRRKLKQVYHLYQFIEPLMADVLEKKGAMTLADHGAGKSYLGFILYDLFLKEKAAGHVYGVETRQELVDKSRELAERLGFERMGFLNLTVEQSITSTALPEQVDIITALHACNTATDDAIRFALAKDAQYIVLVPCCQAEVASVLRQKKNETFGKTPLSELWRHPIHTRE
  soluble on expression in E. coli: not soluble

## MSLKRVLAVQRISRDTEASSALTRQDEALTRAIRQGTYREVGRVVDATVSGAVHLDQRPSLRRWLAEPLVHEWDVLMVTEQDRITRDDMHWWHFVDWTLKNGKDVEVLDDPTFDIQSEDGRMLAGIKAAQAAKYRKAVQAKQLDRTQFFRENRLWNGGVWPFGYRAEVFSHLGERRKRLTVDPCTSRLVREAYDRLVHGEGTVYAVARDWNLRGVPSARDHQRREQNKDLPEQEHRPEKGTRWSVTPLRNILRSPALMGVMMHRSEPVLDAEGQPVVWAEPVLTSEEFAELQEVVLTEQRTAESGPGKRWRTPLLGVVFCMCGRPMYVRHQKNHLADGTTAVLTYYQCRSVSEMNRCEAPSTWRAESLCAVVERDFLDQAGDRTEMKRTYVPGRDHTAAIAELRSALANLTVAIGTATAPAAVAVLTRQMDEHARTITRLEAEPVVHARWKEEPTGAAYREQWRAVKDWESRAALLAKAGVRFFCEGTHKSGSVHMYLPSASQRRVSGVSLSKEAVEVVGIGPLEEEARRYFTDLRRTKGMGPGFWYSREGHHHHHH
  soluble on expression in E. coli: not soluble

## SMSEHSAIVTWKRKDSEAFTDNQYSRAHTWEFDGGSKILASASPHVVPVPLSVEANVDPEEAFVAALSSCHMLVFLSIAAKQRYLVESYTDNAVGILGKNSKGKTSVTKVVLRPQVVFSGTSKPTLQQLEKMHHLAHENCFIANSVETEVVTEII
  soluble on expression in E. coli: soluble

## MAQTIQLANHSEMTIIDNDLHVDVIGNQAHFSFSGLHNKTFTDREVLFEMPFLYEHEANVIGDGFQMLAQTSGTITHPIEIGRCPDNIPPYRVYSQHAPKRYYNYLVIEDSAGYTLFGFTTCRRFAGYFDIQQRNGQWILTAAIDGEHTQVADWEHNQ
  soluble on expression in E. coli: not soluble

## MFIVLNAPVRGRYCAPMTQFASPVLHSLLDTDAYKLHMQQAVFHHYYDVHVAAEFRCRGDDLLGIYADAIREQIQAMQHLRLQDDEYQWLSALPFFKADYLNWLREFRFNPEQVTVSNDNGKLDIRLSGPWREVILWEVPLLAVISEMVHRYRSPQADVAQALDTLESKLVDFSALTAGLDMSRFHLMDFGTRRRFSREVQETIVKRLQQESWFVGTSNYDLARRLSLTPMGTQAHEWFQAHQQISPDLANSQRAALAAWLEEYPDQLGIALTDCITMDAFLRDFGVEFASRYQGLRHDSGDPVEWGEKAIAHYEKLGIDPQSKTLVFSDNLDLRKAVELYRHFSSRVQLSFGIGTRLTCDIPQVKPLNIVIKLVECNGKPVAKLSDSPGKTICHDKAFVRALRKAFDLPHIKKASMAGDPLEHHHHHH
  soluble on expression in E. coli: not soluble

## MTNPVDVNLINGIALAFEGDAVYSYYVRRHLIFQGKTKPSQLHRLATRYVSAKAQANLIQAMLEAQLLTEKEEDIYKRGRNTNSHTKAKNADIITYRMSTGFEAIMGYLDMMGQKERLEELIRWCIEYVEKQQLISSLEHHHHHH
  soluble on expression in E. coli: soluble
